B1: Gamma-crystallin D (Homo sapiens), P07320 (parent)
chain: MGKITLYEDRGFQGRHYECSSDHPNLQPYLSRCNSARVDSGCWMLYEQPNYSGLQYFLRRGDYADHQQWMGLSDSVRSCRLIPHSGSHRIRLYEREDYRGQMIEFTEDCSCLQDRFRFNEIHSLNVLEGSWVLYELSNYRGRQYLLMPGDYRRYQDWGATNARVGSLRRVIDFS
partner: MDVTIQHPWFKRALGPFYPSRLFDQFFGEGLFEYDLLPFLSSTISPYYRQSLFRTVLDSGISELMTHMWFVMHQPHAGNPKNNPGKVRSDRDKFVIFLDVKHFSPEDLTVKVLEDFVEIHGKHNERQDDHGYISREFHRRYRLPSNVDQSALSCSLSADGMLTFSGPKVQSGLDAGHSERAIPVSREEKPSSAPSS
B2: Gamma-crystallin D (Homo sapiens), P07320 (parent)
chain: B1 chain
partner: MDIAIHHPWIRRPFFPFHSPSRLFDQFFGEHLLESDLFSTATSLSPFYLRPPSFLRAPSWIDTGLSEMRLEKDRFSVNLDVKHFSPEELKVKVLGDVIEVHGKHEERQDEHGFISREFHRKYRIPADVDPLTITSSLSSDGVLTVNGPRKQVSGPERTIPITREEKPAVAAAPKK
B3: Alpha-crystallin B chain (Mus musculus), P23927 (parent)
chain: B2 partner

Variants of: B1
Conditions: with cryaa_rat Cryaa

Variant | effect of a mutation on the interaction
V76D | increasing interaction
I4F | increasing interaction

Variants of: B2
Conditions: with cryab_mouse Cryab, P23927

Variant | effect of a mutation on the interaction
V76D | increasing interaction
I4F | increasing interaction

Variants of: B3
Conditions: with crgd_human CRYGD, P07320

Variant | effect of a mutation on the interaction
MDIAIHHPWIRRPFFPFHSPSRLFDQFFGEHLLESDLFSTATSLSPFYLRPPSFLRAPDWIDTGLSEMRLEKDRFSVNLDVKHFSPEELKVKVLGDVIEVHGKHEERQDEHGFISREFHRKYRIPADVDPLTITSSLSSDGVLTVNGPRKQVSGPERTIPITREEKPAVAAAPKK | increasing interaction
MDIAIHHPWIRRPFFPFHDPSRLFDQFFGEHLLESDLFSTATSLSPFYLRPPSFLRAPSWIDTGLSEMRLEKDRFSVNLDVKHFSPEELKVKVLGDVIEVHGKHEERQDEHGFISREFHRKYRIPADVDPLTITSSLSSDGVLTVNGPRKQVSGPERTIPITREEKPAVAAAPKK | increasing interaction
MDIAIHHPWIRRPFFPFHSPSRLFDQFFGEHLLESDLFSTATSLDPFYLRPPSFLRAPSWIDTGLSEMRLEKDRFSVNLDVKHFSPEELKVKVLGDVIEVHGKHEERQDEHGFISREFHRKYRIPADVDPLTITSSLSSDGVLTVNGPRKQVSGPERTIPITREEKPAVAAAPKK | increasing interaction

Source: IntAct's records for PubMed 22289178
